From the supplement of paper PMC9112550, “Optimization of the antimicrobial peptide Bac7 by deep mutational scanning” (BMC Biology, 2022)

Tested on: Escherichia coli TOP10
Assay: shrunken log2 fold change of peptide-encoding DNA abundance (4.5 h post-induction vs induction); higher = less antimicrobial activity (less host growth inhibition)
Details: time post-induction: 4.5 h; library: site-saturation at positions 5, 18, 19, 20
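Further: peptides expressed intracellularly from a pBAD plasmid library in pooled LB shake-flask culture, induced with 0.3% L-arabinose, DNA abundance read by NGS, three biological replicates, DESeq2 with apeglm shrinkage.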

Row | Sequence | shrunken log2 fold change
1 | RRIRMRPPRLPRPRPRPVEFPRP | -0.0638
2 | RRIRMRPPRLPRPRPRPHAGPRP | 0.222
3 | RRIRVRPPRLPRPRPRPNGGPRP | 0.0985
4 | RRIRERPPRLPRPRPRPHEYPRP | -0.0163
5 | RRIRLRPPRLPRPRPRPDWQPRP | -0.0564
6 | RRIRARPPRLPRPRPRPFMSPRP | -0.0065
7 | RRIRFRPPRLPRPRPRPIKPPRP | -0.4
8 | RRIRVRPPRLPRPRPRPEFAPRP | 0.169
9 | RRIRPRPPRLPRPRPRPDNFPRP | -1.15
10 | RRIRQRPPRLPRPRPRPYWQPRP | -0.411
11 | RRIRTRPPRLPRPRPRPDMSPRP | -0.0305
12 | RRIRRRPPRLPRPRPRPGKCPRP | -0.283
13 | RRIRHRPPRLPRPRPRPHCWPRP | -0.0124
14 | RRIRLRPPRLPRPRPRPPMMPRP | -0.149
15 | RRIRGRPPRLPRPRPRPSCHPRP | 0.175
16 | RRIRARPPRLPRPRPRPFDYPRP | -0.245
17 | RRIRVRPPRLPRPRPRPSQGPRP | -0.371
18 | RRIRMRPPRLPRPRPRPVNVPRP | 0.0663
19 | RRIRARPPRLPRPRPRPWSMPRP | -0.198
20 | RRIRMRPPRLPRPRPRPPGYPRP | 0.599
21 | RRIRCRPPRLPRPRPRPRIQPRP | -0.196
22 | RRIRIRPPRLPRPRPRPYTRPRP | -0.353
23 | RRIRIRPPRLPRPRPRPRHLPRP | -0.458

Row | Sequence | shrunken log2 fold change
24 | RRIRRRPPRLPRPRPRPQKCPRP | -0.288
25 | RRIRTRPPRLPRPRPRPDRIPRP | 0.00097
26 | RRIRIRPPRLPRPRPRPNVWPRP | -0.309
27 | RRIRARPPRLPRPRPRPKFGPRP | 0.581
28 | RRIRYRPPRLPRPRPRPHAKPRP | -0.0339
29 | RRIRCRPPRLPRPRPRPLNTPRP | -0.343
30 | RRIRSRPPRLPRPRPRPPNMPRP | -0.118
31 | RRIRYRPPRLPRPRPRPNITPRP | -1.03
32 | RRIRPRPPRLPRPRPRPKFLPRP | 0.0917
33 | RRIRVRPPRLPRPRPRPLTMPRP | -0.319
34 | RRIRARPPRLPRPRPRPHNIPRP | -0.124
35 | RRIRWRPPRLPRPRPRPDFIPRP | -0.395
36 | RRIRKRPPRLPRPRPRPASDPRP | 0.981
37 | RRIRLRPPRLPRPRPRPKDDPRP | -0.0117
38 | RRIRFRPPRLPRPRPRPNMYPRP | -0.712
39 | RRIRTRPPRLPRPRPRPAFKPRP | 0.143
40 | RRIRWRPPRLPRPRPRPKMEPRP | 0.577
41 | RRIRHRPPRLPRPRPRPEWLPRP | 0.274
42 | RRIRYRPPRLPRPRPRPQVQPRP | -0.0106
43 | RRIRARPPRLPRPRPRPCQVPRP | -0.47
44 | RRIRYRPPRLPRPRPRPSWNPRP | -1.04
45 | RRIRNRPPRLPRPRPRPGTMPRP | 0.0148
46 | RRIRERPPRLPRPRPRPHTPPRP | 0.229

Row | Sequence | shrunken log2 fold change
47 | RRIRTRPPRLPRPRPRPTKVPRP | -0.134
48 | RRIRLRPPRLPRPRPRPHYMPRP | -0.969
49 | RRIRKRPPRLPRPRPRPWGAPRP | 0.449
50 | RRIRQRPPRLPRPRPRPYVSPRP | -0.0823
51 | RRIRQRPPRLPRPRPRPGSIPRP | -0.218
52 | RRIRERPPRLPRPRPRPAGMPRP | -0.0133
53 | RRIRYRPPRLPRPRPRPWCCPRP | -0.207
54 | RRIRRRPPRLPRPRPRPGCQPRP | -0.176
55 | RRIRGRPPRLPRPRPRPTFLPRP | 0.356
56 | RRIRLRPPRLPRPRPRPWKAPRP | -0.0344
57 | RRIRERPPRLPRPRPRPKDEPRP | -0.379
58 | RRIRCRPPRLPRPRPRPVMTPRP | -0.147
59 | RRIRWRPPRLPRPRPRPGTVPRP | -0.148
60 | RRIRPRPPRLPRPRPRPQAPPRP | -0.0721
61 | RRIRSRPPRLPRPRPRPYEHPRP | -0.493
62 | RRIRMRPPRLPRPRPRPQERPRP | -0.00224
63 | RRIRWRPPRLPRPRPRPCYCPRP | -0.247
64 | RRIRNRPPRLPRPRPRPDCTPRP | 0.0531
65 | RRIRVRPPRLPRPRPRPNQCPRP | -0.264
66 | RRIRARPPRLPRPRPRPENCPRP | 0.177
67 | RRIRPRPPRLPRPRPRPWIRPRP | -0.175
68 | RRIRMRPPRLPRPRPRPCILPRP | 0.053
69 | RRIRERPPRLPRPRPRPVQIPRP | 0.27

Row | Sequence | shrunken log2 fold change
70 | RRIRVRPPRLPRPRPRPCKYPRP | -0.725
71 | RRIRLRPPRLPRPRPRPRHNPRP | -0.521
72 | RRIRYRPPRLPRPRPRPLAVPRP | -0.0867
73 | RRIRFRPPRLPRPRPRPTDDPRP | -0.019
74 | RRIRHRPPRLPRPRPRPGCWPRP | 0.434
75 | RRIRVRPPRLPRPRPRPRCEPRP | 0.133
76 | RRIRIRPPRLPRPRPRPEWMPRP | -0.0985
77 | RRIRSRPPRLPRPRPRPECVPRP | 0.673
78 | RRIRDRPPRLPRPRPRPYDTPRP | -0.0872
79 | RRIRWRPPRLPRPRPRPFKLPRP | -0.044
80 | RRIRSRPPRLPRPRPRPAITPRP | -0.0725
81 | RRIRRRPPRLPRPRPRPQTDPRP | 0.13
82 | RRIRSRPPRLPRPRPRPANDPRP | 0.0254
83 | RRIRLRPPRLPRPRPRPQIYPRP | -0.17
84 | RRIRGRPPRLPRPRPRPCGDPRP | 0.581
85 | RRIRVRPPRLPRPRPRPMVCPRP | -0.062
86 | RRIRMRPPRLPRPRPRPTGSPRP | 1.34
87 | RRIRKRPPRLPRPRPRPIPCPRP | 0.276
88 | RRIRDRPPRLPRPRPRPPMMPRP | -0.0737
89 | RRIRPRPPRLPRPRPRPYKDPRP | -0.477
90 | RRIRQRPPRLPRPRPRPPRIPRP | 0.0686
91 | RRIRDRPPRLPRPRPRPDWPPRP | -0.0123
